Earlier results as cited in paper PMC9357288.

Biological target: Hck SH3 (Homo sapiens) (UniProt P08631)
Sequence of UniProt P08631 (P08631 75-141): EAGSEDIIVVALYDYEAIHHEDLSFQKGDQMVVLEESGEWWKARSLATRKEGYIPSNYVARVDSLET

In the case of Nef (from UniProt P04324), the Kd is listed as 0.25 µM.
